± gives the standard deviation.
Test: protein stability index of a GFP-peptide fusion (GPS, HEK-293T) (PSI 1-6); higher = more stable
[1] = treatment: DMSO, c terminus: native
[2] = treatment: MLN4924 1 uM, 8 h, c terminus: native
[3] = treatment: DMSO, c terminus: a fixed tail appended
[4] = treatment: MLN4924 1 uM, 8 h, c terminus: a fixed tail appended
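Note: 24-mer peptide tiles fused after GFP, lentivirally expressed, FACS-sorted into six equal bins by GFP/DsRed ratio, decoded by Illumina sequencing, PSI is the read-weighted mean bin number.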

Sequence: SRLLIFPLYICCNFLYISPEKKN [GMCL1]
- protein stability index [1]: 2.97 ± 0.27
- protein stability index [2]: 2.71 ± 0.43

Sequence: NELTLNEKNFFPEYNYDWWEKKPF [CHGB]
- protein stability index [3]: 2.73 ± 0.24
- protein stability index [4]: 3 ± 0.35

Sequence: VSVIQSIPIFNETGRFSFTLPYPV [HACD3]
- protein stability index [3]: 2.91 ± 0.72
- protein stability index [4]: 2.68 ± 0.76

Sequence: NRRLQLLEEENKERAKREMVMYSI [MFF]
- protein stability index [3]: 3.96 ± 0.19
- protein stability index [4]: 3.6 ± 0.13

Sequence: DFGSNCRFSHMSERDLQELSIQVE [ZMAT5]
- protein stability index [3]: 3.05 ± 0.49
- protein stability index [4]: 2.91 ± 0.28

Sequence: PITRKAAQLYTLWVTFQVLLYTSL [DHCR7]
- protein stability index [3]: 3.07 ± 0.22
- protein stability index [4]: 2.56 ± 0.51

Sequence: VTSFPDADAFHHQVHDDDLLSSSE [EMD]
- protein stability index [3]: 5.38 ± 0.33
- protein stability index [4]: 5.33 ± 0.21

Sequence: VIVMTTRFEEGGRRKCGQYWPLEK [PTPN9]
- protein stability index [3]: 2.12 ± 0.75
- protein stability index [4]: 2.47 ± 0.57

Sequence: EDSESLRIKEVEHMTRHLEESEKA [LRRC45]
- protein stability index [3]: 5.5 ± 0.23
- protein stability index [4]: 5.51 ± 0.2

Sequence: SEEAVREVHRLIEGKAPIISGVTK [TPPP]
- protein stability index [3]: 4.44 ± 0.29
- protein stability index [4]: 4.72 ± 0.14

Sequence: TNLPIFKLKESTVRRRYSDFEWLR [SNX3]
- protein stability index [3]: 2.62 ± 0.3
- protein stability index [4]: 2.53 ± 0.36

Sequence: TSIVQAAAGGVPGGGSNNGKTPVC [PDLIM7]
- protein stability index [3]: 4.63 ± 0.17
- protein stability index [4]: 4.81 ± 0.14

Sequence: GLFRKSGVKSRIQALRQMNEGAID [DLC1]
- protein stability index [3]: 3.36 ± 0.1
- protein stability index [4]: 3.71 ± 0.12

Sequence: TASTAPPVPATAPSPAPAVAAAAA [SNAP91]
- protein stability index [3]: 5.09 ± 0.19
- protein stability index [4]: 5.08 ± 0.12

Sequence: GRGLYVYSLQMKRVIACQKTAHDS [WDR41]
- protein stability index [3]: 2.08 ± 0.42
- protein stability index [4]: 2.15 ± 0.34

Sequence: PRCKTTKYRNPSLKLMVNVCGHTL [MNAT1]
- protein stability index [3]: 2.39 ± 0.18
- protein stability index [4]: 2.31 ± 0.23

Sequence: SSELETTSFFDSDEDDSTSRFSSS [DVL3]
- protein stability index [3]: 5.4 ± 0.32
- protein stability index [4]: 5.51 ± 0.31

Sequence: AVLGLYLLVFLILVGIFILAVSRP [SCARA5]
- protein stability index [3]: 3.3 ± 0.071
- protein stability index [4]: 2.58 ± 0.63

Sequence: KDLQKEQKTLQVKCQHYKKKRTEQ [CEP70]
- protein stability index [3]: 4.92 ± 0.31
- protein stability index [4]: 4.87 ± 0.032

Sequence: LNSVERYDPKTNQWSSDVAPTSTC [KLHL20]
- protein stability index [3]: 4.18 ± 0.097
- protein stability index [4]: 4.24 ± 0.43

Sequence: ASLLPSARLASPLPREEEIVFPEK [ADAMTS4]
- protein stability index [3]: 4.7 ± 0.63
- protein stability index [4]: 4.97 ± 0.46

Sequence: ATGEVLGQFYLDLYPREGKYNHAA [NLN]
- protein stability index [3]: 2.91 ± 0.83
- protein stability index [4]: 2.73 ± 0.27

Sequence: IPKCSKIVIDFDSINSRPSQKLQ [DCTD]
- protein stability index [1]: 3.14 ± 0.31
- protein stability index [2]: 3.38 ± 0.32

Sequence: LSEYVSRMKETQKSIYYITGESKE [HSP90AB1]
- protein stability index [3]: 3.69 ± 0.24
- protein stability index [4]: 3.67 ± 0.2

Sequence: ENEEMEQPMQNGEEDRPLGGGEGH [BEX3]
- protein stability index [3]: 5.42 ± 0.15
- protein stability index [4]: 5.41 ± 0.2

Sequence: PQCIKEEDTPSDNDSGICMSPESY [ATF4]
- protein stability index [3]: 5.2 ± 0.23
- protein stability index [4]: 5.28 ± 0.1

Sequence: SSEASQLEDAAGGDSASEEKSGSA [FBXO34]
- protein stability index [3]: 5.61 ± 0.17
- protein stability index [4]: 5.55 ± 0.29

Sequence: GYGRAPGGLSLHDYKLLKPSLAVN [JUNB]
- protein stability index [3]: 2.92 ± 0.035
- protein stability index [4]: 2.88 ± 0.73

Sequence: WKSHLRNVQRPLLQAPFLPPKPPP [RHOBTB2]
- protein stability index [3]: 3.03 ± 0.21
- protein stability index [4]: 3.15 ± 0.32

Sequence: PYREDEEGAFGEHGSQGTYSNTKE [MAP2]
- protein stability index [3]: 5.66 ± 0.22
- protein stability index [4]: 5.72 ± 0.2

Sequence: EDSVFEERPERRSGPPASYCAKLC [C8orf76]
- protein stability index [3]: 4.44 ± 0.29
- protein stability index [4]: 4.6 ± 0.07

Sequence: LSEDDKLQGAASHVPEGFDPTGPA [EHMT1]
- protein stability index [3]: 5.333 ± 0.053
- protein stability index [4]: 5.4 ± 0.073

Sequence: TKEGGMLAYYEVCSWKGATKQRIQ [CHIT1]
- protein stability index [3]: 2.26 ± 0.53
- protein stability index [4]: 2.91 ± 0.65

Sequence: PCLGHTFNAGIQQAFQLPKLGALL [ZBED1]
- protein stability index [3]: 2.36 ± 0.37
- protein stability index [4]: 2.02 ± 0.24

Sequence: RVQKTSKELEDMNQKLFDLRGKFK [TNNI2]
- protein stability index [3]: 3.94 ± 0.25
- protein stability index [4]: 4.03 ± 0.3

Sequence: CKKAFREGSRKSSRVKGSAPEIDP [KMT2E]
- protein stability index [3]: 4.46 ± 0.15
- protein stability index [4]: 4.48 ± 0.15

Source: the supplement of paper PMC10567573
